Numbering of substitutions follows the chain as printed.
B1: EGE11 (SEQ ID NO: 87) (designed binder)
chain: EVVAATPTSLLISWRHPHFPTRYYRITYGETGGNSPVQEFTVPLQPPTATISGLKPGVDYTITGYAVTMGKNDRELLTPISINYRT
B2: B12 (designed binder)
chain: B1 chain with M69V, G70E, K71R, D73G, L77R
notes: 10Fn3 clone, Del 1-8
B3: B11 (designed binder)
chain: B1 chain with M69V, G70E, K71R, D73G, L77K
notes: 10Fn3 clone, Del 1-8
B4: 4C4 PR3 (designed binder)
chain: B1 chain with G64V, M69V, G70A, K71Q, N72D, R74H, L77F
notes: in vitro translated
B5: F12 (designed binder)
chain: B1 chain with M69D, K71R, D73G, R74H, L77M
notes: 10Fn3 clone, Del 1-8
B6: G1 (designed binder)
chain: B1 chain with M69E, K71R, D73G, L77M, T78V
notes: 10Fn3 clone, Del 1-8
B7: 4′G8 PR4 (designed binder)
chain: B1 chain with G64V, M69V, G70A, K71Q, D73G, R74H
notes: in vitro translated
B8: 4′B6 PR4 (designed binder)
chain: B1 chain with G64V, M69L, G70A, K71Q, R74H, L77I
notes: in vitro translated
B9: 159Q(8)L (designed binder)
chain: VSDVPRDLEVVAATPTSLLISWRHPHFPTRYYRITYGETGGNSPVQEFTVPLQPPAATISGLKPGVDYTITGYAVTMAQSGHELFTPISINYRT
notes: also called clone 159
B10: 2H12 PR3 (designed binder)
chain: B9 chain with A56T, G72V, M77E, A78G, Q79Y, S80Q, G81N, F85S, T86V
notes: in vitro translated
B11: 2′A1-PR4 (designed binder)
chain: B9 chain with A56T, G72V, M77S, A78G, Q79H, S80N, G81D, E83M, F85M, T86I
notes: in vitro translated
B12: 2H10 PR3 (designed binder)
chain: B9 chain with A56T, G72V, M77L, Q79P, G81A, H82R, F85M
notes: in vitro translated
B13: 2′D5-PR4 (designed binder)
chain: B9 chain with A56T, G72V, M77V, Q79W, S80N, G81D, E83M, F85M
notes: in vitro translated
B14: 2′G11-PR4 (designed binder)
chain: B9 chain with A56T, G72V, M77G, A78G, S80M, G81N, H82R, E83V, F85M
notes: in vitro translated

How the values were obtained:
[1] = target: Flk-1-Fc (mouse vascular endothelial growth factor receptor-2 Fc chimera) (mouse) (UniProt P35918); assay: radioactive equilibrium binding assay, % bound at 1 nM Flk-1-Fc
Sequence of Flk-1-Fc (mouse vascular endothelial growth factor receptor-2 Fc chimera) (mouse) (P35918 20-762, change not shown): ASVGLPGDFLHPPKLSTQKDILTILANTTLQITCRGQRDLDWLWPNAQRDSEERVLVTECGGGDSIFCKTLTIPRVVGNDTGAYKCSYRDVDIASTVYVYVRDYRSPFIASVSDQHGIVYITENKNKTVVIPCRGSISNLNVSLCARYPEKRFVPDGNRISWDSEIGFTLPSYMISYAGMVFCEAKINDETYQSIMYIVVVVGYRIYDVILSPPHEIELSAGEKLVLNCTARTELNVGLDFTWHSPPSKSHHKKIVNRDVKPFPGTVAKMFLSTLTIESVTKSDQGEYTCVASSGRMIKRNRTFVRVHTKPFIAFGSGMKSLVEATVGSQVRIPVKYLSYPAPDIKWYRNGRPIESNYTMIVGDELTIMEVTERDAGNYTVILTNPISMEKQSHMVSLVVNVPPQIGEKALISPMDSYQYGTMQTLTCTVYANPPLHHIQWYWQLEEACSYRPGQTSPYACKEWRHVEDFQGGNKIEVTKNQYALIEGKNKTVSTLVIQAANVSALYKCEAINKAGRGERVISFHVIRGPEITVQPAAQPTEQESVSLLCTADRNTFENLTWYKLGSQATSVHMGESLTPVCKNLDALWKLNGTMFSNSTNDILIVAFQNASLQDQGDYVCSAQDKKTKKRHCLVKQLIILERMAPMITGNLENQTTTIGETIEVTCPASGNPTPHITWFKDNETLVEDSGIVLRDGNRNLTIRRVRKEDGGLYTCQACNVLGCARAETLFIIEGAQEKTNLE

[2] = target: T1, Flk-1-Fc (mouse vascular endothelial growth factor receptor-2 Fc chimera) (mouse, UniProt P35918 20-762); assay: as above
T1 construct: Bought from R&D Systems; also called mouse VEGFR-2-Fc; Fc part of the bought chimera not given
Method: (§1) To prepare ³⁵S-labeled binding proteins for analysis, mRNA was prepared as described above for RNA-protein fusion production but the linker ligation step was omitted. The mRNA was expressed using rabbit reticulocyte lysate translation kit (Ambion) in the presence of ³⁵S-labeled Met at 30° C. for 1 hour. Expressed protein was purified on M2-agarose Flag beads (Sigma) as described above. This procedure produced the encoded protein without the nucleic acid tail. In a direct binding assay, VEGF-R2-Fc fusions in concentrations ranging from 0 to 200 nM were added to a constant concentration of the purified protein (0.2 or 0.5 nM) and incubated at 30° C. for 1 hour in buffer B. The receptor-binder complexes were captured using Protein A magnetic beads for another 10 minutes at room temperature using a Kingfisher™ The beads were washed with six reaction volumes of buffer B. The protein was eluted from the beads with 100 μL of 0.1 M KOH. 50 μL of the reaction mixture and elution were dried onto a LumaPlate-96 (Packard) and the amount of ³⁵S on the plate was measured using a TopCount NXT instrument (Packard). The amount of fibronectin-based scaffold protein bound to the target was estimated as a percent of radioactivity eluted from Protein A magnetic beads compare to radioactivity in the reaction mixture. Nonspecific binding of fibronectin-based scaffold proteins to the beads was determined by measuring binding in the absence of KDR-Fc and represented less than 1-2% of the input. Specific binding was obtained through subtraction of nonspecific binding from total binding. Data was analyzed using the GraphPad Prizm software (GraphPad Software, Inc, San Diego, Calif.), fitted using a one site, non-linear binding equation.

[3] = target: T2, human vascular endothelial growth factor receptor-2 Fc chimera (KDR-Fc) (human, UniProt P35968 20-764); assay: radioactive equilibrium binding, 1 nM KDR-Fc
T2 construct: range 1-764; Purchased from R&D Systems; also called hKDR; human VEGF-R2-Fc; not shown: human IgG1 Fc
T2 sequence (P35968 20-764 limits assumed, change not shown, form in doubt): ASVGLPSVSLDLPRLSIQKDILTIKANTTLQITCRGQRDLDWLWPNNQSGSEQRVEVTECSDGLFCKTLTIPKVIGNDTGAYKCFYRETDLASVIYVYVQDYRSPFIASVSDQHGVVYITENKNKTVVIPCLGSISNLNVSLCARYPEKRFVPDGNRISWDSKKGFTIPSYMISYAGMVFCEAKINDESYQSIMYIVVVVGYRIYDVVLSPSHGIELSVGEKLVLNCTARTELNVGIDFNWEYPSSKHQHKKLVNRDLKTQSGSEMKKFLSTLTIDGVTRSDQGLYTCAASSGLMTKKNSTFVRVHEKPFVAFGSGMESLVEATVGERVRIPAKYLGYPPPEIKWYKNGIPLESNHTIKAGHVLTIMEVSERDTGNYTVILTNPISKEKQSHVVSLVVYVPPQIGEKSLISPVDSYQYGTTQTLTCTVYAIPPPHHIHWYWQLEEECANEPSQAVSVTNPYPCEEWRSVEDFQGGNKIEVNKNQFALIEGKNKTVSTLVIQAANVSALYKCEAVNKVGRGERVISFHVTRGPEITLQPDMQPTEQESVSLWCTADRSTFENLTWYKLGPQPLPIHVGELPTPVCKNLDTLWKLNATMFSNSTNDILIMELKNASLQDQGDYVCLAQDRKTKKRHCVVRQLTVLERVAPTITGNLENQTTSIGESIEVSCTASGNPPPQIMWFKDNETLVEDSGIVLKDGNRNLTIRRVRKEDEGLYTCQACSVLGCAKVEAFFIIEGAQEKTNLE
Method: as §1

[4] = target: T3, Flk-1-Fc (mouse vascular endothelial growth factor receptor-2 Fc chimera) (mouse, UniProt P35918 20-762); assay: method not given
T3 construct: Purchased from R&D Systems; also called mouse VEGF-R2-Fc; not shown: Fc part of the purchased chimera

Row | Binder | Binding to 1 nM KDR, % [3] | further results
1 | B1 |  | Binding to 1 nM Flk-1, % [1]: 1%
2 | B2 |  | Binding to 1 nM Flk-1, % [2]: 21%
3 | B3 |  | Binding to 1 nM Flk-1, % [2]: 21%
4 | B4 | 10% | 
5 | B5 |  | Binding to 1 nM Flk-1, % [2]: 1%
6 | B6 |  | Binding to 1 nM Flk-1, % [2]: 2%
7 | B7 | 13% | 
8 | B8 | 11% | 
9 | B9 |  | Kd [4]: > 3000 nM
10 | B10 | 10% | 
11 | B11 | 11% | 
12 | B12 | 10% | 
13 | B13 | 11% | 
14 | B14 | 12% | 

Reference: patent US20120283184A1 (published 2012)
